Biological target: the molecule itself
Experiment: SEC; 40 μg TMEM16F (0.4 mg/mL) incubated with 40 μg #50 affibody (0.5 mg/mL) for 2 h at 4°C, separated on Superose 6 FPLC; fractions around 14.8 mL analysed by SDS-PAGE and Western blot

B1: human TMEM16F (hTMEM16F) variant 1, SBP-tagged, purified (natural protein, UniProt Q4KMQ2-1 1-910, looked up)
chain: MKKMSRNVLLQMEEEEDDDDGDIVLENLGQTIVPDLGSLESQHDFRTPEFEEFNGKPDSLFFNDGQRRIDFVLVYEDESRKETNKKGTNEKQRRKRQAYESNLICHGLQLEATRSVLDDKLVFVKVHAPWEVLCTYAEIMHIKLPLKPNDLKNRSSAFGTLNWFTKVLSVDESIIKPEQEFFTAPFEKNRMNDFYIVDRDAFFNPATRSRIVYFILSRVKYQVINNVSKFGINRLVNSGIYKAAFPLHDCKFRRQSEDPSCPNERYLLYREWAHPRSIYKKQPLDLIRKYYGEKIGIYFAWLGYYTQMLLLAAVVGVACFLYGYLNQDNCTWSKEVCHPDIGGKIIMCPQCDRLCPFWKLNITCESSKKLCIFDSFGTLVFAVFMGVWVTLFLEFWKRRQAELEYEWDTVELQQEEQARPEYEARCTHVVINEITQEEERIPFTAWGKCIRITLCASAVFFWILLIIASVIGIIVYRLSVFIVFSAKLPKNINGTDPIQKYLTPQTATSITASIISFIIIMILNTIYEKVAIMITNFELPRTQTDYENSLTMKMFLFQFVNYYSSCFYIAFFKGKFVGYPGDPVYWLGKYRNEECDPGGCLLELTTQLTIIMGGKAIWNNIQEVLLPWIMNLIGRFHRVSGSEKITPRWEQDYHLQPMGKLGLFYEYLEMIIQFGFVTLFVASFPLAPLLALVNNILEIRVDAWKLTTQFRRLVPEKAQDIGAWQPIMQGIAILAVVTNAMIIAFTSDMIPRLVYYWSFSVPPYGDHTSYTMEGYINNTLSIFKVADFKNKSKGNPYSDLGNHTTCRYRDFRYPPGHPQEYKHNIYYWHVIAAKLAFIIVMEHVIYSVKFFISYAIPDVSKRTKSKIQREKYLTQKLLHENHLKDMTKNMGVIAERMIEAVDNNLRPKSE
notes: Human TMEM16F variant 1 (anoctamin-6), cDNA clone NM_001025356.2 bought from Genescript; called 'purified whole TMEM16F protein' in the discussion; In one BLI experiment the same protein was incorporated into nanodiscs (MSP 2N2, Addgene #29520; POPC:POPG 3:1; TMEM16F:MSP:lipid 1:5:100) under detergent-free conditions; also called purified human TMEM16F protein; TMEM16F-nanodisc complex (when …)
**Q.** With B1 as the protein, how does the “stoichiometry N” value read?
**A.** 2

From PMC10808743, “Generation of human TMEM16F-specific affibodies using purified TMEM16F” (Frontiers in Molecular Biosciences, 2023)
